Test: soluble on expression in E. coli; label from the status in PepcDB or PDB records

Sequence | soluble on expression in E. coli
MPKISSRDGGRPAQRTVNPIIVTRRGKIARLESGLTPQEAQIEDLVFLRKVLNRADIPYLLIRNHKNRPVLAINIELRAGLERALAAACATEPMYAKTIDEPGLSPVLVATDGLSQLVDPRVVRLYRRRIAPGGFRYGPAFGVELQFWVYEETVIRCPVENSLSRKVLPRNEITPTNVKLYGYKWPTLDGMFAPHASDVVFDIDMVFSWVDGSDPEFRARRMAQMSQYVVGEGDDAEARIRQIDELKYALRSVNMFAPWIRRIFIATDSTPPPWLAEHPKITIVRAEDHFSDRSALPTYNSHAVESQLHHIPGLSEHFLYSNDDMFFGRPLKASMFFSPGGVTRFIEAKTRIGLGANNPARSGFENAARVNRQLLFDRFGQVITRHLEHTAVPLRKSVLIEMEREFPEEFARTAASPFRSDTDISVTNSFYHYYALMTGRAVPQEKAKVLYVDTTSYAGLRLLPKLRKHRGYDFFCLNDGSFPEVPAAQRAERVVSFLERYFPIPAPWEKIAADVSRRDFAVPRTSAPSEGALEHHHHHH | not soluble
MPKMDVKGIAVTVYSENAMDFISLTDMLRAKDGDFFISDWLRNRNTVEFLGIWEQVHNPNFNYGEFATIRSQAGLNSYKISVKEWVARTHAIGLVAKAGRYGGTYAHKDIAFEFGMWISAEFKIYLIKEFQRLKEAEQQQLGWDIRRNLTKINYRIHTDAIQTNLIPPALTQSQISLIYASEADLLNMALFGKTAKQWREENPNNKGNIRDEANVSQLVCLANLETLNAHFIHQGLPQVERLKILNQTAIHQMKLLLADRSLKQLDGN | not soluble
MPKSVKVIAVTPEEREAVMSIDFGGAYDFTSPGFNLFEVREKYSEPMDAAAGVVYNLLWNSGLPEKFGCREQTLLNFILQCRRRYRRVPYHNFYHVVDVCQTLHTYLYTGKASELLTELECYVLLVTALVHDLDHMGVNNSFYLKTDSPLGILSSASGNNSVLEVHHCSLAIEILSDPAADVFEGLSGQDVAYAYRALIDCVLATDMARHGDLSRVFDDMAKAGYDSNDQESRRLVMETLIKAGDVSNVTKPFETSRMWAMAVTEEFYRQGDMEKEKGVEVLPMFDRSKNNELARGQIGFIDFVAGKFFRDIVGNLFHGMQWCVDTVNSNRAKWQEILDGRRDSIRPSIV | soluble
MPKVAILIYSVDDIIATLAENEKKGIEIAGGEAEIFQVPDVSYKTEYATEEGKEAAKVAKTNADFSYKILTRETLVEYDYYLFGIPTKFGNFPAEWKSFWDSNTGGLWAKGSLHGKIAGLFVSGAISGKGDTEMCIMNAMSTLVHHGVIYVPLGYKNAYKELTDVEDVNGSCAWGAGCVSGIDGGRPPSLSELRVHQLQGKAFYDRIKDL | not soluble
MPKVRTKDLIEQFQLELISGEEGIHRPIDTSDLSRPGIEMAGFFTYYPADRVQLLGKTELTFFDTLTSDQKQERMKALCTEETPCIIVTRNQDVPDELLQASRESGMPLLRSSQTTTRLSSRLTNYLEGKLAPTTAVHGVLVDIYGVGVLITGQSGVGKSETALELVKRGHRLVADDSVEIRQEDEDMLVGSSPDLIEHLLEIRGLGIINVMTLFGAGAVRNYKRITLVINLEIWDQKKNYDRLGLDEEKMKIIDTELTKITLPVRPGRNLAVIIEVAAMNFRLKRMGVNAAQQFSERLMSAIELGNQE | not soluble
MPLAVDLLHPEPQREIRCHKLKRLVQHPNSYFMDVKCSGCFKISTVFSHATTVVVCVGCNTVLCQPTRGKAKLTEGCSFRKKQ | not soluble
MPLDGEYEPSPTQWVREQVERYESSGGTEGTTLMDTGLPVIVLTTRGARSGKLRKTPLMRVEHEGRYAVVASLGGAPKHPVWYFNVKADPRVELQDGPVKQDMTAREVTGAEKARWWERAVAAYPSYADYQKKTEREIPVFVLEPSHAG | not soluble
MPLFAGFSPRSGQGDLAEFVDIINGARRDLLFVTAFALPDSILDALLGQPHDDVLRYGLQNTASRITGFHADRTAEFAATALLNNGLEGWLKEGLKGQKGNLLVHTKAIVTDFTSEAPVIISGSHNLSVGASQSNDENFLIIRGDIDLEHHHHHH | soluble
MPLGLFSSGKAQVLCDEKIPGGKKKEPKQLSENKCKGVTLKLDHTRVTIEKQIAEGGFAIVYVASDRKNNKFALKRQFTKDNEKQLEACCREHSFLKQCIGHKNIVEFVDSYTNCLGNGIWECMLLTEYHQKNVLQLMNERISQNQYLTNDEILSIFTDLCEAVSFIHNRPQPIIHRDLKVENVLISSHKPPHYVLCDFGSATTQILSVEKYGVEYVKSEVERNTTMCYRSPEMIDFYSGLEIGLKSDIWALGVLLYRLCFFCVPFEESPLAIQSVNYQFPSVPNIPDEIKVLIYMLLDIDVNRRPSIYQTSVLAFEANHRKPLSEEIQNKKCTDAVPSLKSCIQLMRDGSNPRNKRDSSPRNPEAPPIQSSSKMASLSQQVPSISNISMPSGSGTVETSVAPRLRPKATTVVPNVPSISPVPPVGLPHLRLPSKGSTDETDGSQVRKVPIDFHHRQSFSGEEQLKPAAEADSAGPLSCPLIKPTDLGFTDLDKPALPRDRAQTDGKRRLPHESDIIFQQQHRRNVSDTSQISRSAFKPYSSQQTTSKTSSQVVRSVEDMSQRQNGGSGEWNPFLVAPFSNNSISRKDGQESAFMMDDSHFGMVFDEIRRKEIPAELDSETSSIDSRDPFGAAPFDQLTVSTSSSAQPVSLPPATDEDDERQLLSETDEEEKYEIDEKEEIQTKKDETINEEDSEIDEQRMNDRRRYSYENIDGVGDDASSDSRGKTDRDDSEEEEDDDSRRGGDTSHDEDSQNTVGSEDGEGGSRPLLEDDGLEDDDDHELISSFSSSSTNYPPLFIGTSTPHTQNPITNPFLRDELTPKMIITAPLPTAKNNLDDDWDLGDRWTDRRDTVFERPASEHQNVFAPATLPRQATPLVCRFKPDLPTAAPVSIIPSMSNTSFPEAVRDSDTVPCEPIIGTLISVGAPTDPPPPPLPKKPTEASPTQETTATIPVALGKKEKLLKKEKKKEKKDGKKDKLKLEEYREKGSSEPETDGSEAEIWTNDGATTFSNKKKKKSTFGLRSSHPSIVANDLQFSSPMPPVVKKSSKDKKSSLTGKNASFVNTSFQPEDHDDPTDL | soluble
MPLTPADVHNVAFSKPPIGKRGYNEDEVDAFLDLVEQELSRLIEENADLRQRVGELDKELADAKKAPRSGSAAPTPAPKAEPARVVEQPKAPAPAPAPAAAAAAAPAQGADAHMQAAKVLGLAQEMADRLTSDAKTESEQLLGNARTNSEQLVSDARTRSETMIADARQKSEALITDAQTRSETQLRQAKEKADALQADAEKKHTEIMATINQQRSVLEGRIEQLKTFEREYRVRLKSYLESQLEELEQRGSAVPVDGGQDSFAQGGSQSNYSQSYAKGNS | not soluble
MPLTSVTPLCITWNGEKLVAAGYDSTILTAVPKDIVKVKVNDRPIVFDVAPIIGEGRTLVPLRHIFEALGAEVKWDASTRTVTGIKGSDKIILKIDSKEALVNGETKELDVPATIVNGRTLVPVRSISESLGAEVSWDDNSKTVIIKTNF | not soluble
MPMFNTLTSLFKQLLEGQDLAQHSATPELAIACLLSEVAGADQQISAPEQQAKLALLQHLLQCTAEQASDLLMRAEQEVKQSASLYDFTSQLRSLSQTQRFELIKAMWEVANADGTIDPLEDAVIRKAAELLYVDHSQFIRAKLMAADKHQSPE | not soluble
MPNNLELKQLIASAQVLGLQNDSSLPAFDRQILRMADEEKRALSPTEIQHICQTSKVDAQLIEQLQSQANHLVQQAREFLVKEQPHLVQSGGALFPSERAEACWRDCWQFFRVIVYAIACKRPLFTDAEGMGALRALYAHVGVPIEGLNIALKQLKVLSRQEISGAIEAPLLSESFGHLLEELNKTGVKS | not soluble
MPNPRRIVFGDVHGHFDALTALFEAIAPNERDGVYFVGDLIDRGPESAKVVDFVMENKYHCLLGNHEQMMLDAVGGFNFSPQLLHAWIYSGGKSTLESYEHQIPQSHVDWMRNLPLYLDLGDVWLVHAGVDPRLPIEEQGEAQFCWIRDEFHRYPYPYFANKLIITGHTITFTFANVEPGKLVSGPGWLDIDTGAYHPKSGWLTALELNNQEVYQAHIFTNEVRRLPLEDAVVPLPPQNLHRLEHHHHHH | not soluble

Reference: the DeepSol protein solubility set
